{"source": "patent US20240239875A1", "about": "(CURIA IP, published 2024)", "binders": {"B1": {"name": "7-N20-A (antibody, V domains shown)", "VH": "QVQLVETGGGLVRPGNSLKLSCVTSGFTFSNYRMHWLRQPPGKRLEWIGIITDKSDNYGANYAESVKGRFAISRDDSKSSVYLEMKRLREEDTATYFCSRDGYDWYFDLWGTGTTVTVSS", "VL": "DIVMTQSHKFMSTSVGDRVRITCKASQDVGIVVAWYQQKPGQSPKLLIYWASTRHTGVPDRFTGSGSGTDFTLTISNVQSEDLADYFCQQYSSYPTFGGGTKLEIK"}, "B2": {"name": "7-D7-A (antibody, V domains shown)", "VH": "QVQLKESGPGLVAPSQSLSITCTVSGFSLTSYAISWVRQPPGKGLEWLGVIWPGGGTNYNSALKSRLSISKDNSKSQVFLKMNSLQTDDTAKYYCARTGYYFDYWGQGTTLTVSS", "VL": "QLILTQSPAIMSASPGEKVTMTCSASLSVNYMYWFQQKPGTSPKRWIHDTSKLASGVPARFSGSGSGTSYSLTISSMEAEDAATYYCQQWSSNPPMYTFGGGTKLEIK"}, "B3": {"name": "8-A17-A (antibody, V domains shown)", "VH": "B2 VH with I51V, S70N, A91G, K92R, Y101H", "VL": "B2 VL with L2I, I3V, A25V, L27S, N30S, Y33H, F35Y, P39S, H48Y"}, "B4": {"name": "2-G20-A (antibody, V domains shown)", "VH": "EVQLQQSGPELVKPGASVKMSCKASGYTFPSYVLHWVKQKPGQGLEWIGYIYPYNDGTNYNEKFKGKATLTSDKSSSTAYMELSSLTSEDSAVYYCARGDYGDSAWFPYWGQGTLVTVSA", "VL": "DIVLTQSPASLAVSLGQRATISCRASKSVSTSGYSYMHWYQQKPGQPPKLLIYLASNLKSGVPARFSGGGSGTDFTLNIHPVEEEDAATYYCQLSRELPWTFGGGTKLEIK"}, "B5": {"name": "9-F6-A (antibody, V domains shown)", "VH": "EVQLQQSGPELVKPGASVKMSCKASGYTFTSYIMHWVKQKPGQGLEWIGYILPYNDGTKYNEKFKGKATLTSDKSSSTAYMELRSLTSEDSAVYYCARWGYSNFLDSWGQGTTLTVSS", "VL": "DIQMTQTTSSLSASLGDRVTISCRASQDINNYLNWYQQKPDGTVKLLIYYTSRLHSGVPSRFSGSGSGTDYSLTIRNLEQEDIATYFCQQGNTLPPTFGGGTKLEIK"}, "B6": {"name": "1-L10-A (antibody, V domains shown)", "VH": "EVKLEESGGGLVQPGGSMKLSCVASGFTFNNYWMNWVRQSPEKGLEWVAQMRLKSDNYATHYAESVKGRFTISRDDSKSSVYLQMNNLRAEDTGIYYCIEGYWTYWGQGTLVTVSA", "VL": "QIVLTQSPAIMSASLGERVTMTCTASSSVSSSYLHWYQQKPGSSPKLWIYSTSNLASGVPARFSGNGSGTSYSLTISSMEAEDAATYYCLQYHRSPPYTFGGGTKLEIK"}, "B7": {"name": "6-O12-A (antibody, V domains shown)", "VH": "QVQLQQPGTELVKPGASVKLSCKASGYTFTSYWMHWVKQRPGQGLEWIGNINPSNGGTNYNEKFRSKATLTVDKSSSTAYMQLSSLTSEDSAVYYCARLGWFLPLGSWGQGTTLTVSS", "VL": "QIVLTQSPAIMSASLGEVITLTCSASSSVSYMHWYQQKSGTSPKLLIYSTSNLASGVPSRFSGSGSGTFYSLTISSVEAEDAADYYCHQWSGYMYTFGGGTKLEIK"}}, "note": "Numbering of substitutions follows the chain as printed.", "data": [{"target": "T1, SARS-CoV-2 S2 domain (SARS-CoV-2, UniProt P0DTC2 686-1213)", "experiment": "ELISA (FIG. 10 summary)", "values": [{"binder": "B1", "binding result": "no binding"}]}, {"target": "T1, SARS-CoV-2 S2 domain", "experiment": "ELISA (FIG. 2C grouping)", "values": [{"binder": "B2", "binding result": "no binding"}, {"binder": "B3", "binding result": "no binding"}, {"binder": "B4", "binding result": "no binding"}, {"binder": "B5", "binding result": "no binding"}, {"binder": "B6", "binding result": "no binding"}, {"binder": "B7", "binding result": "no binding"}]}]}
